Patent publication US20050249698A1 (priority 2002, published 2005)

What was measured:
Type in all cases: in vivo, Balb/c mice
[1] = system: normal mice; experiment: Test 2: spleen weight
Procedure: (§1) The clean grade of the Balb/c mice, weighed from 16 to 18 g, were used and randomly grouped, 7-10 mice per group. The tests were carried out in two batches.
(§2) The mice were divided into 4 groups.
(§3) The mice in each group were sacrificed on the eleventh day.
(§4) The detection indexes were as follows: • (1) The counts of the peripheral blood leucocytes of the mice in each group were determined on the first day (no drug was administered), the 3rd, 5th, 7th, 9th and 11th day. • (2) The counts of marrow karyotes (BMNC) of the mice in each group were determined on the 11th day. • (3) The weights of the spleens of the mice in each group were determined on the 11th day.

[2] = system: normal mice; experiment: Test 2: marrow karyote count of the thighbone; conditions: 11th day, Test 2, simultaneous administration; x±SE
Procedure: as §1, §2, §3, §4

[3] = system: normal mice; experiment: Test 1: pathologic observation of spleen sections; conditions: 14th day, Test 1, FIG. 4
Procedure: as §1, §2
(§5) The mice in each group were sacrificed on the 14th day.
(§6) The detection indexes were as follows: • (1) The counts of the peripheral blood leucocytes (WBC), the peripheral blood lymphocytes (LY), red blood cells (RBCs) and the change of platelet were determined for each group on the first day (no drug was administered), the 5th, 8th, 10th, 12th and 14th day. • (2) The counts of marrow karyotes (BMNC) of the mice in each group and the change of the classification of the marrow were determined on the 14th day. • (3) The sections of the sternum of the mice in each group were determined on the 14th day. • (4) The weights of the spleens of the mice in each group and the sections of the […] were determined on the 14th day.

[4] = system: normal mice; experiment: Test 1: spleen weight
Procedure: as §1, §2, §5, §6

[5] = system: normal mice; experiment: Test 1: peripheral blood cell counts, sOGP for 5 days then sOGP and rhG-CSF co-administered
Procedure: as §1, §2, §5, §6

[6] = system: normal mice; experiment: Test 1: marrow karyote count and classification of the thighbone; conditions: 14th day, x±SE
Procedure: as §1, §2, §5, §6

[7] = system: normal mice; experiment: Test 1: pathologic observation of breastbone (sternum) sections; conditions: 14th day, Test 1, FIG. 3
Procedure: as §1, §2, §5, §6

[8] = Test 1, sOGP 5 days then co-administration, x±SE

B1: rhG-CSF: commercially available recombinant human granulocyte colony stimulating factor (protein, UniProt P09919 31-207, looked up)
Granulocyte …: TPLGPASSLPQSFLLKCLEQVRKIQGDGAALQEKLVSECATYKLCHPEELVLLGHSLGIPWAPLSSCPSQALQLAGCLSQLHSGLFLYQGLLQALEGISPELGPTLDTLQLDVADFATTIWQQMEELGMAPALQPTQGAMPAFASAFQRRAGGVLVASHLQSFLEVSYRVLRHLAQP
**Q.** Which results are given for B1?
**A.** spleen weight ([1]; 11th day, Test 2, simultaneous administration, x±SE): 0.244 ± 0.017 g; spleen weight compared with the other two groups (control, sOGP) ([1]; Test 2, Table 5): significantly higher; karyote number/thighbone [2]: 1.75 ± 0.12 ×10^7; spleen section: matured granulocytes as share of the granulocytes [3]: about 60%; spleen section: megakaryocyte cell line [3]: moderately proliferated; spleen section: red matter [3]: proliferated moderately; spleen section: white matter [3]: lightly to moderately shrunk; spleen weight ([4]; 14th day, Test 1, x±SE): 0.252 ± 0.007 g; spleen weight compared with the other two groups (control, sOGP) ([4]; Test 1, Table 3): significantly higher; % leucocyte granulocyte [5, 8]: 70.39 ± 1.54%; % leucocyte lymphocyte [5, 8]: 29.61 ± 1.54%; leucocyte ([5]; Test 1, x±SE): 17.59 ± 1.59 ×10^6/ml; platelet ([5]; Test 1, x±SE): 505.43 ± 35.34 ×10^6/ml; red blood cell ([5]; Test 1, x±SE): 6.68 ± 0.10 ×10^9/ml; karyote/thighbone [6]: 1.90 ± 0.13 ×10^7; marrow: early erythroblast ([6]; thighbone marrow): 2.50 ± 0.33%; marrow: intermediate erythroblast ([6]; thighbone marrow): 12.13 ± 1.92%; marrow: late erythroblast ([6]; thighbone marrow): 16.00 ± 2.11%; marrow: lymphocyte, plasma cell ([6]; thighbone marrow): 19.38 ± 2.00%; marrow: matured granulocyte ([6]; thighbone marrow): 30.83 ± 2.77%; marrow: myelocyte, metamyelocyte ([6]; thighbone marrow): 11.00 ± 1.00%; marrow: primitive granulocyte ([6]; thighbone marrow): 0.63 ± 0.36%; marrow: promyelocyte ([6]; thighbone marrow): 1.88 ± 0.44%; pathologic observation of bone marrow cells in breastbone section [7]: the proliferation of the bone marrow cells and the ratios among the three cell lines were normal
